Columns and labels:
[1] = target: MUC-1 on ZR-75-1 cells deglycosylated with 4 mM Phenyl-N-alpha-D-Glucosamide (unglycosylated MUC-1) (human) (UniProt P15941); experiment: FACScan on deglycosylated ZR-75-1 cells (PBS control 6.76)
[2] = target: MUC-1 glycoprotein on untreated ZR-75-1 cells (glycosylated MUC-1) (human) (UniProt P15941); experiment: FACScan on untreated ZR-75-1 cells (PBS control 6.23)
MUC-1 glycoprotein on untreated ZR-75-1 cells (glycosylated MUC-1) (human), sequence (P15941 24-1255): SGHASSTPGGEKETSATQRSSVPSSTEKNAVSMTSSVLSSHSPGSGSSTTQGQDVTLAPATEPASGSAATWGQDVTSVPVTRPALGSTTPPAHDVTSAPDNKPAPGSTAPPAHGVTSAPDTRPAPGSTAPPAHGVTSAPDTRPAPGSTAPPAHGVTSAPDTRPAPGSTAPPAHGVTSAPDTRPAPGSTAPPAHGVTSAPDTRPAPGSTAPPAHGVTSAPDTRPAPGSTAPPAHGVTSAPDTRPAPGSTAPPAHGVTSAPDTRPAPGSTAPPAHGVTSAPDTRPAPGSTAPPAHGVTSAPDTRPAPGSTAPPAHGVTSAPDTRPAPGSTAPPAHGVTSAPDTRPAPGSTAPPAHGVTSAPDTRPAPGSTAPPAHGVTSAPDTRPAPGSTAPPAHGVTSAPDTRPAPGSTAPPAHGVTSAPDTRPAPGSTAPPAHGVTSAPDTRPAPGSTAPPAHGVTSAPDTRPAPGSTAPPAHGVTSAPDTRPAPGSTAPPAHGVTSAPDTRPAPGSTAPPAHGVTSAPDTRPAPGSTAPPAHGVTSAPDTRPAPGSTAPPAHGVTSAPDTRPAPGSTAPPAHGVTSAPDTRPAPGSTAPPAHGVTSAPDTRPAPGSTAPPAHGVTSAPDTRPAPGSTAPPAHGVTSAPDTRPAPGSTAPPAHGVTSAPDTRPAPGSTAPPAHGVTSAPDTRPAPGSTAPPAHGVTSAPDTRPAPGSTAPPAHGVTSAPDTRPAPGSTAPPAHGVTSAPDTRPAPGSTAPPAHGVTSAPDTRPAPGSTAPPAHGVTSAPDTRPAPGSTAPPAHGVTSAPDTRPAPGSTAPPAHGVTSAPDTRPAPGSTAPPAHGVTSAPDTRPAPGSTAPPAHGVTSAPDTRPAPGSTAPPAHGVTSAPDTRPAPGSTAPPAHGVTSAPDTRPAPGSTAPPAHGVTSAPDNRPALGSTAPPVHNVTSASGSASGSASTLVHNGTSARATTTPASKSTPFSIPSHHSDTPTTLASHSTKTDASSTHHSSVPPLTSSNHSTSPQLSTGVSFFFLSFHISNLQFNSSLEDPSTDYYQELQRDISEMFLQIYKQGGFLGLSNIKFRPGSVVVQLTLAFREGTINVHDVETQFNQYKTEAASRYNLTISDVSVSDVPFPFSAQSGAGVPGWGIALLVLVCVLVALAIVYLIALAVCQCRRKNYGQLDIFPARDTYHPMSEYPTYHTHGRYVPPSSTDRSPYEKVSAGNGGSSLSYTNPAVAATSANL

MUC-1 on ZR-75-1 cells deglycosylated with 4 mM Phenyl-N-alpha-D-Glucosamide (unglycosylated MUC-1) (human), sequence (P15941 24-1255, form in doubt): as the sequence (P15941 24-1255) above

% positive cells [1]: 41.3%
% positive cells [2]: 7.49%
Substance: SM3 (antibody)

— US7147850
